Test results as given in FireProtDB (doi:10.1021/bi972394l).
Values joined by “and” are separate entries in the source; they are usually repeats but may differ in a detail not shown here. Equal values may be shown once.

Details: Homo sapiens; pH 7.8; Thermal; DSC; potassium phosphate 2 mM; transition: 2; reversible: Yes; whole UniProt chain shown

B1: Superoxide dismutase [Mn], mitochondrial wild type, P04179 (protein)
chain: MLSRAVCGTSRQLAPVLGYLGSRQKHSLPDLPYDYGALEPHINAQIMQLHHSKHHAAYVNNLNVTEEKYQEALAKGDVTAQIALQPALKFNGGGHINHSIFWTNLSPNGGGEPKGELLEAIKRDFGSFDKFKEKLTAASVGVQGSGWGWLGFNKERGHLQIAACPNQDPLQGTTGLIPLLGIDVWEHAYYLQYKNVRPDYLKAIWNVINWENVTERYMACKK
  unfolding enthalpy (calorimetric): 142 kcal/mol and 90.6 kcal/mol
